Test results published in patent US20160355588A1 (Zymeworks, published 2016).
Read-outs that look alike come from different tables or passages of the source.

Columns and labels:
Assay in all cases: cell-based or functional assay
[1] = biological target: T1, CD20 on Raji B cells (human, UniProt P11836 1-297)
T1 sequence (looked up): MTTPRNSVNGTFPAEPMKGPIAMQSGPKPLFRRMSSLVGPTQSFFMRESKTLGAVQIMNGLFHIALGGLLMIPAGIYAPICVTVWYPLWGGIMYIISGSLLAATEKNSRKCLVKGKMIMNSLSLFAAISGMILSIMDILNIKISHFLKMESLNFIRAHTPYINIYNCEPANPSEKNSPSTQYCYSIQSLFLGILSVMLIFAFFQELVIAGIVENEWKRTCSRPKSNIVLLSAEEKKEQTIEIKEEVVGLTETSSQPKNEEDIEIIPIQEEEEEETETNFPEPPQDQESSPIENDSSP

[2] = biological target: T2, CD19 on Raji B cells (human, UniProt P15391 20-556)
T2 sequence (looked up): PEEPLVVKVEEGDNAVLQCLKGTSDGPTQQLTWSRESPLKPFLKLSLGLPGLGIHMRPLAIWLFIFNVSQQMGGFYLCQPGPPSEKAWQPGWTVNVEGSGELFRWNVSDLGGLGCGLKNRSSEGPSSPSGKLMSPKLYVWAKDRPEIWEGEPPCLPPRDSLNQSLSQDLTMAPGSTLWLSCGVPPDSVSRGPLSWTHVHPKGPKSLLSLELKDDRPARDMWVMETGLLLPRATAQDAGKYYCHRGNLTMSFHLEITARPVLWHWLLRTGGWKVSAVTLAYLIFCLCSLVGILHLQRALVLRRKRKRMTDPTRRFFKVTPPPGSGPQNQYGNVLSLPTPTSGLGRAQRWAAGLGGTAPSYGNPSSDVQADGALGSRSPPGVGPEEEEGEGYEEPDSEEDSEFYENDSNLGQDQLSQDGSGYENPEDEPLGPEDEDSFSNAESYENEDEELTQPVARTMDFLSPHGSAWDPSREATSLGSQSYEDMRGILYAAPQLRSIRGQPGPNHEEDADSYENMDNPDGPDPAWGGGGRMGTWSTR

[3] = biological target: T1, CD20 on Raji B cells; remark: listed apart in the source
[4] = biological target: T2, CD19 on Raji B cells; remark: listed apart in the source

B1: v1821 (bispecific antibody, human IgG1, kappa)
heavy 1: QVQLVQSGGGVVQPGRSLRLSCKASGYTFTSYTMHWVRQAPGKGLEWIGYINPSSGYTKYNQKFKDRFTISADKSKSTAFLQMDSLRPEDTGVYFCARWQDYDVYFDYWGQGTPVTVSSASTKGPSVFPLAPSSKSTSGGTAALGCLVKDYFPEPVTVSWNSGALTSGVHTFPAVLQSSGLYSLSSVVTVPSSSLGTQTYICNVNHKPSNTKVDKKVEPKSCDKTHTCPPCPAPELLGGPSVFLFPPKPKDTLMISRTPEVTCVVVDVSHEDPEVKFNWYVDGVEVHNAKTKPREEQYNSTYRVVSVLTVLHQDWLNGKEYKCKVSNKALPAPIEKTISKAKGQPREPQVYVYPPSRDELTKNQVSLTCLVKGFYPSDIAVEWESNGQPENNYKTTPPVLDSDGSFALVSKLTVDKSRWQQGNVFSCSVMHEALHNHYTQKSLSLSPGK
heavy 2: not shown
light: QIVLSQSPAILSASPGEKVTMTCRASSSVSYIHWFQQKPGSSPKPWIYATSNLASGVPVRFSGSGSGTSYSLTISRVEAEDAATYYCQQWTSNPPTFGGGTKLEIKRTVAAPSVFIFPPSDEQLKSGTASVVCLLNNFYPREAKVQWKVDNALQSGNSQESVTEQDSKDSTYSLSSTLTLSKADYEKHKVYACEVTHQGLSSPVTKSFNRGEC
[1]
  % Bridging Jurkat/Raji (whole cell FACS T:B bridging; CD3 on Jurkat bridged to the B cell antigen on Raji): 7.3%

B2: v5852 (bispecific antibody, human IgG1, kappa, L234A L235A)
heavy: QVQLVQSGGGVVQPGRSLRLSCKASGYTFTRYTMHWVRQAPGKGLEWIGYINPSRGYTNYNQKVKDRFTISRDNSKNTAFLQMDSLRPEDTGVYFCARYYDDHYCLDYWGQGTPVTVSSASTKGPSVFPLAPSSKSTSGGTAALGCLVKDYFPEPVTVSWNSGALTSGVHTFPAVLQSSGLYSLSSVVTVPSSSLGTQTYICNVNHKPSNTKVDKKVEPKSCDKTHTCPPCPAPELLGGPSVFLFPPKPKDTLMISRTPEVTCVVVDVSHEDPEVKFNWYVDGVEVHNAKTKPREEQYNSTYRVVSVLTVLHQDWLNGKEYKCKVSNKALPAPIEKTISKAKGQPREPQVYVYPPSRDELTKNQVSLTCLVKGFYPSDIAVEWESNGQPENNYKTTPPVLDSDGSFALVSKLTVDKSRWQQGNVFSCSVMHEALHNHYTQKSLSLSPGK
chain: EVQLVESGGGLVKPGGSLKLSCAASGYTFTSYVMHWVRQAPGKGLEWIGYINPYNDGTKYNEKFQGRVTISSDKSISTAYMELSSLRSEDTAMYYCARGTYYYGTRVFDYWGQGTLVTVSSGGGGSGGGGSGGGGSDIVMTQSPATLSLSPGERATLSCRSSKSLQNVNGNTYLYWFQQKPGQSPQLLIYRMSNLNSGVPDRFSGSGSGTEFTLTISSLEPEDFAVYYCMQHLEYPITFGAGTKLEIKAAEPKSSDKTHTCPPCPAPEAAGGPSVFLFPPKPKDTLMISRTPEVTCVVVSVSHEDPEVKFNWYVDGVEVHNAKTKPREEQYNSTYRVVSVLTVLHQDWLNGKEYKCKVSNKALPAPIEKTISKAKGQPREPQVYVLPPSRDELTKNQVSLLCLVKGFYPSDIAVEWESNGQPENNYLTWPPVLDSDGSFFLYSKLTVDKSRWQQGNVFSCSVMHEALHNHYTQKSLSLSPGK
light: DIQMTQSPSSLSASVGDRVTITCSASSSVSYMNWYQQTPGKAPKRWIYDTSKLASGVPSRFSGSGSGTDYTFTISSLQPEDIATYYCQQWSSNPFTFGQGTKLQITRTVAAPSVFIFPPSDEQLKSGTASVVCLLNNFYPREAKVQWKVDNALQSGNSQESVTEQDSKDSTYSLSSTLTLSKADYEKHKVYACEVTHQGLSSPVTKSFNRGEC
[2]
  % Bridging Jurkat/Raji (whole cell FACS T:B bridging; CD3 on Jurkat bridged to the B cell antigen on Raji): 30.4%

B3: v6325 (bispecific antibody, human IgG1, kappa)
heavy: QVQLVQSGGGVVQPGRSLRLSCKASGYTFTRYTMHWVRQAPGKGLEWIGYINPSRGYTNYNQKVKDRFTISRDNSKNTAFLQMDSLRPEDTGVYFCARYYDDHYCLDYWGQGTPVTVSSASTKGPSVFPLAPSSKSTSGGTAALGCLVKDYFPEPVTVSWNSGALTSGVHTFPAVLQSSGLYSLSSVVTVPSSSLGTQTYICNVNHKPSNTKVDKKVEPKSCDKTHTCPPCPAPELLGGPSVFLFPPKPKDTLMISRTPEVTCVVVDVSHEDPEVKFNWYVDGVEVHNAKTKPREEQYNSTYRVVSVLTVLHQDWLNGKEYKCKVSNKALPAPIEKTISKAKGQPREPQVYVYPPSRDELTKNQVSLTCLVKGFYPSDIAVEWESNGQPENNYKTTPPVLDSDGSFALVSKLTVDKSRWQQGNVFSCSVMHEALHNHYTQKSLSLSPGK
chain: not shown
light: DIQMTQSPSSLSASVGDRVTITCSASSSVSYMNWYQQTPGKAPKRWIYDTSKLASGVPSRFSGSGSGTDYTFTISSLQPEDIATYYCQQWSSNPFTFGQGTKLQITRTVAAPSVFIFPPSDEQLKSGTASVVCLLNNFYPREAKVQWKVDNALQSGNSQESVTEQDSKDSTYSLSSTLTLSKADYEKHKVYACEVTHQGLSSPVTKSFNRGEC
[3]
  % Bridging Jurkat/Raji (whole cell FACS T:B bridging; CD3 on Jurkat bridged to the B cell antigen on Raji): 15.7%

B4: v5851 (bispecific antibody)
chain: not shown
heavy: not shown
light: DIVMTQSPATLSLSPGERATLSCRSSKSLQNVNGNTYLYWFQQKPGQSPQLLIYRMSNLNSGVPDRFSGSGSGTEFTLTISSLEPEDFAVYYCMQHLEYPITFGAGTKLEIKRTVAAPSVFIFPPSDEQLKSGTASVVCLLNNFYPREAKVQWKVDNALQSGNSQESVTEQDSKDSTYSLSSTLTLSKADYEKHKVYACEVTHQGLSSPVTKSFNRGEC
[4]
  % Bridging Jurkat/Raji (whole cell FACS T:B bridging; CD3 on Jurkat bridged to the B cell antigen on Raji): 23.2%
